Results as given in the DeepSol protein solubility set.

test: soluble on expression in E. coli; label from the status in PepcDB or PDB records

**Q.** With “MFENNETLIVWSETDVMDLALSFQEKSGCEELWQKICEVQGRDPGDPDATFDDGDDSDVGEMPSSASRLQLPPIEIGRLGELDALLHMHLTTNSAREKMTLAIENDNVVTKLCEVFRMCEDIEHTEGLRTFYSIVKNLFMLNRNTVIEMLLDDNNIKDVIGMFEFDPAYKHPRKHRDFVYKKAKFREVLNISCDELRDKIHRLYRAQYIQDACLPSLGLFEENLLSTLSSHVFFCRVDIVTLLQKDKKAMSELFGQLISEETDVIRRRDLALFLKEMISLSTSIPSNGPAATKETFFKVLQNMFNSEILDSLEPCFKSPDHETRAVMVDVLRTMVDANAQMIRDFLLKQSKTKDKNEDVLLNMMIRHLLTDIDVHLTSGSEIVLIMKTLLDPENMTTVKSERSDFLQLFYNRCYESLLKPILENVSGGNIKKDDYMIANRQSVILRLLTFCVEHHSFSMRQRCVSNDLMNKVLVLLKSKHSFLVLSALKLLQRVVTVKDDKYIRYIVKEKVLDPVMECFRKNGNRYNIINSSVLHLFEFVRSEDVRPLIKYVVENHMEVVDSVNYVKTFKEIKIRYDQHRDREETMSVRSEDNSLASPRSFRKDRNEDQWFDEDEDLEVGTMLESIEKDSVAVSPKKEEAGQRKTGMEPMFPSLLKRKNAFDDDEAPVFGGGSAAVINNTEKKIVIKVNSDRSPSRTPSPASSPRASSSPGPSRDDEVTSSQNNKESSPTPTVKSLVDYDESDDSDDDPPSPDAVPSSSTGSPEKEGDSADGKKGDSPEYNDVSSTSNEEKFDSRNGAPVTNENGGVEAAAPTVEISRKRTSDGIDPDAKRIRTEETAPAATATVSQA” as the sequence, how does the “soluble on expression in E. coli” value read?
**A.** The value was “not soluble”.

**Q.** With “MGSDKIHHHHHHMTSKIDGLSVSSGLHRRYWNGMVADLWSVDCQSDAGGQYVSSDPRLFILLDAAGEDGADLSMAEGGGKRISGAMARAAHFIPAGLELSTAITGVKSLRHLDLHFDADILRHRLGEDAGLAALHQPRYLLDDPRLLALAELIAADVANPHPLHDLYGDGLVSALLIDVLNIRPTPTHQLPNRKRSKLAAWQLRRVCDFIEAHCLRTIRLEELAGLAGLSPTYFSHAFKASTGLSPHQWQMKARIETVKQRLRDPAVPLTVIAAETGFADAAHFARSFRRAVGLSPSEWRRVRLN” as the sequence, how does the “soluble on expression in E. coli” value read?
**A.** The value was “not soluble”.

**Q.** For “MPFEIGTMPIMSIDPKLLEVLACPQDKGPLKYLEAEQVLVNERLEIAYRIDDGIPVMLVDESIAWPPAEKAAALEHHHHHH”, which “soluble on expression in E. coli” value is on record?
**A.** The value was “not soluble”.

**Q.** For “MVTSKKCPTCHGKRLSTSVLKCKINNLDIADFTNLSIDDALKFIKKIDSPKANVIIEPLQQQLESLSYIGLNYLTLSRESTSLSGGESQRIKLIRHLNSALSDLVYIIDEPSIGLHPEDIQRINEIILSLKNKGNTVLVVEHDPDVIKIADYIIDLGPLAGKYGGDITFTGSYHELLNSTTHTGDALRRMHQLKSPNLSASNFINLKNVSRNNIKNMTVTLPEQAMTVVTGVAGSGKSSLIHTGLEALADTIFIDQKPAHASSRSNLLTYLNIFDDVRSYFSEVTGLKKSLFSYNSAGACPECHGKGIIKTELAFMPDFTQTCDVCHGKRYKPEVLDVKVEGYNIADILALTVDEAITFFNKNKDIAQPLQALKSTGLNYMTLGQTLDTLSGGEVQRVKLSKYLTKTVHQHIFVFDEPTTGLHEDDIPILIDCFKRLIDEHNTVVIIEHNLTMMTYADWIIDIGPFAGEKGGQLLYQGEPQGLLQINASLTAKHLKRYTERLEHHHHHH”, which “soluble on expression in E. coli” value is on record?
**A.** Its value is “soluble”.

**Q.** With “MQSLDPLFARLSRSKFRSRFRLGMKERQYCLEKGAPVIEQHAADFVAKRLAPALPANDGKQTPMRGHPVFIAQHATATCCRGCLAKWHNIPQGVSLSEEQQRYIVAVIYHWLVVQMNQP” as the sequence, how does the “soluble on expression in E. coli” value read?
**A.** The value was “soluble”.

**Q.** With “MNIVEPLRDKDDIQAMKDYLSSWNEKYYMLFLLGINTGFRVGDILKLKVKDVQGWHIKVREQKTGKYKSIKMTRPLKNELREFVKDKELHEYLFQSRVGKNKALSYKTVYWFLKRAAEDLGIDNVGTHTMRKTFGYHYYKKYKNVADLMSLFNHSSPAVTLIYICVRQDELDTKMSNFSL” as the sequence, how does the “soluble on expression in E. coli” value read?
**A.** Its value is “not soluble”.

**Q.** Which “soluble on expression in E. coli” value does the source give for “MSKALASDEKDDWITHLKAISNVFTQVCTLSASEESAKKLAIKEREECLQELVELRAIAEAHDDVIQQFHLLLAANHQGDATSRQIFNDMKQEVGDNMERIQEHRLVEAKLNVEKRRNERMAKHINEVSKKSVMHLMATRFYARELAAMRQMMDLVRNAATIESAVKSKLWDEIEKENRLLRLNTLWLINRINSSDLGDAAFENGDDWQSSPRLVILMREHINQGLGLEITGGCDQFRPVVVTGKLKRSMADDDQLRVNDRILAIDGTFVTNTTTHAEVMEMLENESAKDFISLIVSQFDPTKYHEAHPNGKCHKFVSTPISGKADSGEDV” here?
**A.** The value was “not soluble”.

**Q.** Which “soluble on expression in E. coli” value does the source give for “VARAVGKENKSEFGVPSVVEMRPPALCEGCGHRDMYITLTEVLKEEYPSHKVFSDIGCYTLGANAPFNAINSCVDMGASITMAKGAADGGLHPSVAVIGDSTFTHSGMTGLLDCVNENANVVIVISDNETTAMTGGQDSAGTGRIESICIGLGVDPAHIRVVVPLKKNHEEMRQIIREEIEYNGVSVIIPRRECIQTLARKKRSK” here?
**A.** The value was “not soluble”.

**Q.** For “MSSGDMTSEYKDKQGGGAGQPLTKSENNDGKKTLTNGMSRVHRVLTEDEIASGRSTRWTELEIHGRVKNLSPSLWQLTHLSALFLNNNGLTRLPPEIAQLTNLTMLDISNNKLRSLPTELGDMISLCHLYLNNNQLRVLPYELGKLFRIQTLGLQGNPLSPEISKIYHETNGAQKILQFLLDHLTINTHPPPERNWVMIRHADPERPIATFTVLCYNVLCDKYATVNQYSYCPSWALNWEYRKGLIIKEIRTYEADVITLQEVETEQFRTLFQPELKQLGYAGIFEAKSRAKTMGEEERKYVDGCAIFWKVDKFDMDKQYLFEFSSVAMKKASTSENMLNRVMPRDNIGLCAVLKIKESVYANKFLGRMQIPMNDNVVGNPLVVATAHIHWDPEFCDVKLVQSMMLTHEVSRVLEEVSKKYQITQQQVPVLICGDFNSLPDSGVFEYLSKGQITRRHMDLKSFRDDSCLEKFTNSTDKNVISHPLRLDSACDINSIPFTNYTLDFKGMIDYIFATPQSLARLGILGPFDPQWVQSNKILGFPHPHVASDHIPIMAQYAIIPTTHQRQQPLQQAGPAAGVIGGGFPSTPSGAQPFLRC”, which “soluble on expression in E. coli” value is on record?
**A.** The value was “not soluble”.

**Q.** Which “soluble on expression in E. coli” value does the source give for “SLVSSSKITRAREMVTKTEEKQLNQLEIQVDNGGGGTWEYLCLVRNLKVRRSEKVLKHGSSILNDQKKRSALGPDEWTLNEQVAIAAMDCQCLGVAQSCIKALQTKFPGSKRVGRLEALLLEAKGLWGEAEEAYASLLEDNPLDQAIHKRRVAISKALGKPSIAIELLNKYLELFMADHDAWRELAELYLSLQMYKQAAFCYEELILSQPTVPLYHLAYAEVLYTIGGVENIISARKYYAATVDLTGGKNTRALLGICLCASAIAQLSKGRNKEDKDATAAPELHSLAAAAVEKEYKQKAPDKLQLISSALRILKT” here?
**A.** The value was “soluble”.

**Q.** With “MSLSADFSQPLADRLRPRTLDEYIGQLHLIEPGRPLYESIRRGRLHSMIFWGPPGTGKTTLARLVARHADAEFLPVSAVLSGVKEIREALARAVQFKAAGRRAILFVDEVHRFNKSQQDAFLAHVEDGTVSFIGATTENPSFEVNSALLSRARVYVLKALTEADLLGVIDRALSDAERGLGGRGLNMSDPVRMAYVRAADGDARRLLNLLEITADLLDAGQTVVSEEVARQVLASGTTRRFDKQGEEFYNQISALHKSVRGSSPDAALYWLCRMLDGGCDPLYLARRLVRIASEDIGNADPKALELCLNAWNAQERLGSPEGELALAQAVVYLAVAPKSNAVYEAYKAARADAARSGSLPVPLHLRNAPTGLMKGLDYGKGYRYAHDYPDAYVPGENYFPEGLERREYYRPVNRGMEIKIAEKLERLKALDKEADEGHHHHHH” as the sequence, how does the “soluble on expression in E. coli” value read?
**A.** Its value is “not soluble”.

**Q.** Which “soluble on expression in E. coli” value does the source give for “MKILVTGTEGYLGSLLPSLLIAKGHEVSGLDTGFYKVGWLYNGTNITAKTLNKDIRNIIPEDLEGVDAIVHMAELSNDPAGQLAPHITYEINHLGSVHLANLAKRMGVRRFLYMSSCSVYGVASEGDVTEESPVNPQTAYAECKTLVERDIKPLADDDFSPTFMRNATAFGASPRMRFDIVLNNLSGLAWTTKEIKMTSDGTPWRPLVHALDICQAIICALEAPRDIVHNQVFNVGDTANNYRVKEIAEIIADTFPSCKLTFGNNGSDNRSYRVSFEKINTVLPGFKCEWNAQTGAKQLFDLFSQIDMTEDTFLFRGFTRLKQLEYLIRTQQIDQNFFWAKCDNVVV” here?
**A.** Its value is “not soluble”.

**Q.** Which “soluble on expression in E. coli” value does the source give for “MGSDKIHHHHHHMLCQFSFKNFKSYKETTTFDFQATSIPEFSESLLKSEKADALLPVGVIYGPNGGGKTNLLLALSCLISTVVKPIYELEKAREKIIIQQKISAAPFYFNEISRKMPTEFEVYFRQGKNEYRYNLSICGDDIVEESLYWKAIGGKRTGMVFDREGAEITLGASINKASINRSVNPKMPYLSFLAINYDIPVIVEVQKWFESCIVKNYANPIADRQIMFSDDESYRKRIVRALNDVDIDVSGYRYDEENHELYTQRMIEGKIYELSFNDESDGTKKMIAALPVILLALQEGRLVIIDELDAKLHPKLLRYVISLFKNKNVNKKGAQLLFTSHDMTTMKNTVFRRDEIWFAAENERHESEIYSLYEIRRENNERVNSTAAYDKQYLEGRYGADPYLTNMLAGGEWL” here?
**A.** Its value is “not soluble”.

**Q.** With “MGSDKIHHHHHHLTLESKYHKKPEEIEEEQLWIEKAKQNPQHFAVLYEKYYKTIFLYLFRKVNDMDVAGDLCSDVFSKALSAIQSYEYKGVPYSAWLYRIAANEANMYFRKHNKREMICIDDTSIHLLNEDLQESNEENIYLTFLPLCLERLKPDEVILVQWRFFENKAFKEVGEIMNMTENNAKVKTYRILEKIRKWMLEMKGKSNE” as the sequence, how does the “soluble on expression in E. coli” value read?
**A.** The value was “not soluble”.

**Q.** For “MGSDKIHHHHHHMALKDIISQVYRRLFNVIATVCPVRKHVVLFEAFNGKVPMDNPLYVYEALQTAHPDWKLVWSVKRQLVVEAQEKYPKLNIIPRFSAKWLLVAPVAEFWVLNARMPYWLKKNAKTTYIQTWHGTPLKRLGIDIPKVSMPGTDTSQYRQNFTAESKRWDYLIAPNQFSKDVFRRAFDFNNQFLDYGYPRNDRLVHQRQDYDAIAAIKKRIVGNKMGKVILYAPTWRDDFFIRKGMYKMNLPFSLAAVVKRLNKEDVLIIRPHYLVAESINIQGFEDNVKLCVDEDINDLYLISDLLITDYSSVMFDYAILNRPMLFYPYDLAHYQGDVRGFYFDYNKVPGPIVTNEQDFLAKLDQFLTNDGYPNETAKMMAFRTQFTEWEQGTASQRVVKLITSIDQNANNYTG”, which “soluble on expression in E. coli” value is on record?
**A.** Its value is “not soluble”.

**Q.** For “SPLPDTMFCAQQIHIPPELPDILKQFTKAAIRTQPADVLQWSAGYFSALSRGDPLPVKDRIEMPVATQKTDTGLTQGLLKVLHKQCSHKQYVELADLEKKWKNLCLPVEKLRTILELDPCEDKIEWIKFLALGCSSLGRTLNTAMKNVCEILTSDPEGGPARIPFETFAYVYQYLSGLDPELPAVETENYLTSLRLMSESRKNGMIGLSDFFVGKKII”, which “soluble on expression in E. coli” value is on record?
**A.** Its value is “soluble”.

**Q.** Which “soluble on expression in E. coli” value does the source give for “MHTFYLPFILSLSMPPKKKSSKTIYKFPQSFHDLPKSLSKNYYQPEPESIINDQIIIIKNFFNKDLCNELIKSFETQLNMETTPLIKSKEYAARFNDRSSMNDLLSANILWQYLQKILLDNPYNDEDLKEINQIFQDAVGLNPQLRVYRYTRGHHFGKHYDDSVICPIPPQGTKKGYTTWTLLIYLTGDEEFKGGGTIFYPEIKNIKPLNIHPNKGMALLHKHGDDCLKHEAEMVANGAKWVLRSDVVFPI” here?
**A.** Its value is “soluble”.

**Q.** Which “soluble on expression in E. coli” value does the source give for “MGSDKIHHHHHHMSYNFEEERVIKEIREKNAKRVLLQFPEGLKYFSIDIVKKLREKLPNVNFIISGEPSWGACDIAEDEAQQVNADLIIHFGHTPYTWYYPKFPTIFINAESNLDISENALHSLENDISKYNGRKISLTATLQHVRLLSKIKSFLEDKGYDIVIGKPSNRFMFDGQVLGCDYKAAEVEADIYVIVSGGLFHALGLGLATNKPTIKLDPYLQKSEDITNDVRKILKVRYGKILQALDKRSWVIIQGVKVGQNRPNMIKYFYDKLTEKGYDVFTVTNKVLTLDILRNLDRNYIDVFLVTSCPRLPIDDLYNYEKPVLTPGEAKMIINNSLEPYIFPW” here?
**A.** The value was “not soluble”.
